pIC50, pKd: −log10 of the molar value. Each block holds one sequence with its values, some of them ahead of it.
How the values were obtained:
HLA-A*24:02 = assay: IEDB peptide-MHC binding, cellular MHC/competitive/fluorescence; ≥ and ≤ were set here for values at or beyond the usual limits of such assays; conditions: source organism: Human herpesvirus 5 strain AD169
HLA-B*15:02 [1] = assay: IEDB peptide-MHC binding, purified MHC/competitive/fluorescence; filed as Kd, often an IC50 or EC50 that approximates it; ≥ and ≤ were set here for values at or beyond the usual limits of such assays
HLA-C*07:02 = assay: IEDB peptide-MHC binding, purified MHC/direct/fluorescence; filed as Kd, often an IC50 or EC50 that approximates it; ≥ and ≤ were set here for values at or beyond the usual limits of such assays; conditions: source organism: Burkholderia pseudomallei 406e
HLA-C*14:02 = assay: as above; conditions: source organism: Burkholderia pseudomallei 406e
HLA-C*15:02 = assay: as above; conditions: source organism: Burkholderia pseudomallei 406e
HLA-A*29:02 [2] = assay: IEDB peptide-MHC binding, purified MHC/competitive/fluorescence; filed as Kd, often an IC50 or EC50 that approximates it; ≥ and ≤ were set here for values at or beyond the usual limits of such assays; conditions: source organism: Burkholderia pseudomallei 406e
HLA-A*32:15 = assay: as above; conditions: source organism: Burkholderia pseudomallei 406e
HLA-A*68:23 = assay: as above; conditions: source organism: Burkholderia pseudomallei 406e
HLA-B*15:42 = assay: as above; conditions: source organism: Burkholderia pseudomallei 406e
HLA-B*27:20 = assay: as above; conditions: source organism: Burkholderia pseudomallei 406e
HLA-B*40:13 = assay: as above; conditions: source organism: Burkholderia pseudomallei 406e
HLA-B*45:06 = assay: as above; conditions: source organism: Burkholderia pseudomallei 406e
HLA-B*83:01 = assay: as above; conditions: source organism: Burkholderia pseudomallei 406e
HLA-C*06:02 = assay: as above; conditions: source organism: Burkholderia pseudomallei 406e
HLA-A*29:02 [3] = assay: IEDB peptide-MHC binding, purified MHC/competitive/radioactivity; ≥ and ≤ were set here for values at or beyond the usual limits of such assays; conditions: source organism: Human papillomavirus 16
HLA-B*46:01 [4] = assay: IEDB peptide-MHC binding, cellular MHC/competitive/fluorescence; ≥ and ≤ were set here for values at or beyond the usual limits of such assays; conditions: source organism: Human herpesvirus 4 strain B95-8
HLA-A*01:01 = assay: IEDB peptide-MHC binding, purified MHC/direct/fluorescence; filed as Kd, often an IC50 or EC50 that approximates it; ≥ and ≤ were set here for values at or beyond the usual limits of such assays
HLA-A*02:01 = assay: as above
HLA-A*11:01 [5] = assay: as above
HLA-A*26:03 = assay: as above; conditions: source organism: Variola virus
HLA-A*31:01 = assay: as above
HLA-A*68:02 = assay: as above; conditions: source organism: Camelpox virus M-96
HLA-A*69:01 = assay: as above
HLA-B*07:02 = assay: as above
HLA-B*08:02 = assay: as above
HLA-B*15:01 = assay: as above
HLA-B*15:02 [6] = assay: as above
HLA-B*27:05 [7] = assay: as above
HLA-B*46:01 [8] = assay: as above
HLA-B*48:01 = assay: as above
HLA-B*57:01 = assay: as above; conditions: source organism: Camelpox virus M-96
HLA-B*58:01 = assay: as above
HLA-A*26:02 = assay: IEDB peptide-MHC binding, purified MHC/competitive/fluorescence; filed as Kd, often an IC50 or EC50 that approximates it; ≥ and ≤ were set here for values at or beyond the usual limits of such assays; conditions: source organism: Vaccinia virus WR
HLA-B*15:17 = assay: as above; conditions: source organism: Vaccinia virus WR
HLA-B*15:03 = assay: IEDB peptide-MHC binding, purified MHC/competitive/radioactivity; filed as Kd, often an IC50 or EC50 that approximates it; ≥ and ≤ were set here for values at or beyond the usual limits of such assays; conditions: source organism: Vaccinia virus WR
HLA-B*27:04 = assay: IEDB peptide-MHC binding, cellular MHC/competitive/fluorescence; ≥ and ≤ were set here for values at or beyond the usual limits of such assays; conditions: source organism: Human herpesvirus 4 strain B95-8
HLA-A*03:01 = assay: IEDB peptide-MHC binding, purified MHC/direct/fluorescence; filed as Kd, often an IC50 or EC50 that approximates it; ≥ and ≤ were set here for values at or beyond the usual limits of such assays; conditions: source organism: Pasteurella multocida
HLA-A*26:01 [9] = assay: as above; conditions: source organism: Pasteurella multocida
HLA-B*08:01 = assay: as above; conditions: source organism: Pasteurella multocida
HLA-B*35:01 [10] = assay: as above
HLA-B*40:01 = assay: as above; conditions: source organism: Pasteurella multocida
HLA-B*27:05 [11] = assay: IEDB peptide-MHC binding, purified MHC/competitive/fluorescence; ≥ and ≤ were set here for values at or beyond the usual limits of such assays; conditions: source organism: hepatitis C virus genotype 1a
HLA-B*73:01 = assay: IEDB peptide-MHC binding, purified MHC/competitive/fluorescence; filed as Kd, often an IC50 or EC50 that approximates it; ≥ and ≤ were set here for values at or beyond the usual limits of such assays; conditions: source organism: Yersinia enterocolitica subsp. enterocolitica 8081
HLA-B*35:01 [12] = assay: IEDB peptide-MHC binding, cellular MHC/competitive/fluorescence; ≥ and ≤ were set here for values at or beyond the usual limits of such assays; conditions: source organism: Mycobacterium tuberculosis H37Rv
HLA-B*15:09 = assay: IEDB peptide-MHC binding, purified MHC/direct/fluorescence; filed as Kd, often an IC50 or EC50 that approximates it; ≥ and ≤ were set here for values at or beyond the usual limits of such assays; conditions: source organism: Yersinia pestis KIM10+
HLA-B*39:01 = assay: as above; conditions: source organism: Yersinia pestis KIM10+
HLA-A*11:01 [13] = assay: IEDB peptide-MHC binding, purified MHC/competitive/fluorescence; filed as Kd, often an IC50 or EC50 that approximates it; ≥ and ≤ were set here for values at or beyond the usual limits of such assays; conditions: source organism: Yersinia pestis KIM10+
HLA-A*26:01 [14] = assay: as above; conditions: source organism: Yersinia pestis KIM10+
[15] = source organism: Camelpox virus M-96
[16] = source organism: Pasteurella multocida
[17] = source organism: Yersinia pestis
[18] = source organism: Yersinia pestis KIM10+

Sequence: VFPTKDVAL
pIC50 (HLA-A*24:02): ≤ 3.48

Sequence: MQLPQGGAF
pKd (HLA-B*15:02 [1]; source organism: Burkholderia pseudomallei K96243): 7.63

Sequence: MSWGWRLPF
pKd (HLA-C*07:02): 6.61
pKd (HLA-C*14:02): 6.54
pKd (HLA-C*15:02): 5.76
pKd (HLA-A*29:02 [2]): 7.79
pKd (HLA-A*32:15): 8.30
pKd (HLA-A*68:23): 7.10
pKd (HLA-B*15:42): ≤ 5.30
pKd (HLA-B*27:20): 7.30
pKd (HLA-B*40:13): 6.65
pKd (HLA-B*45:06): ≤ 5.30
pKd (HLA-B*83:01): 5.23
pKd (HLA-C*06:02): 6.41

Sequence: IFVYIPLFL
pIC50 (HLA-A*29:02 [3]): 6.35

Sequence: HAMHISTGL
pIC50 (HLA-B*46:01 [4]): 5.30

Sequence: YQYIFLSFF
pKd (HLA-A*01:01; [15]): ≤ 4.70
pKd (HLA-A*02:01; [15]): ≤ 4.70
pKd (HLA-A*11:01 [5]; [15]): ≤ 4.70
pKd (HLA-A*26:03): ≤ 4.70
pKd (HLA-A*31:01; [15]): ≤ 4.70
pKd (HLA-A*68:02): ≤ 4.70
pKd (HLA-A*69:01; [15]): ≤ 4.70
pKd (HLA-B*07:02; [15]): ≤ 4.70
pKd (HLA-B*08:02; source organism: Variola virus): ≤ 4.70
pKd (HLA-B*15:01; [15]): 5.51
pKd (HLA-B*15:02 [6]; source organism: Variola virus): 5.71
pKd (HLA-B*27:05 [7]; [15]): ≤ 4.70
pKd (HLA-B*46:01 [8]; [15]): ≤ 4.70
pKd (HLA-B*48:01; [15]): ≤ 4.70
pKd (HLA-B*57:01): ≤ 4.70
pKd (HLA-B*58:01; [15]): ≤ 4.70
pKd (HLA-A*26:02): ≤ 4.70
pKd (HLA-B*15:17): ≤ 4.70
pKd (HLA-B*15:03): 9.03

Sequence: SRRTSRPNR
pIC50 (HLA-B*27:04): 5.00

pKd (HLA-A*01:01; [16]): ≤ 4.70
pKd (HLA-A*02:01; [16]): ≤ 4.70
pKd (HLA-A*03:01): ≤ 4.70
pKd (HLA-A*11:01 [5]; [16]): ≤ 4.70
pKd (HLA-A*26:01 [9]): ≤ 4.70
pKd (HLA-A*31:01; [16]): ≤ 4.70
pKd (HLA-A*69:01; [16]): ≤ 4.70
pKd (HLA-B*07:02; [16]): ≤ 4.70
pKd (HLA-B*08:01): ≤ 4.70
pKd (HLA-B*15:01; [16]): 6.52
pKd (HLA-B*27:05 [7]; [16]): ≤ 4.70
pKd (HLA-B*35:01 [10]; [16]): 6.92
pKd (HLA-B*40:01): ≤ 4.70
pKd (HLA-B*58:01; [16]): ≤ 4.70
pKd (HLA-B*15:02 [1]; source organism: Pasteurella multocida subsp. multocida str. Pm70): 7.13
Sequence: SQLEMCEKY

Sequence: GKAVICGKY
pIC50 (HLA-B*27:05 [11]): 5.33

Sequence: WDYLVRHDA
pKd (HLA-B*73:01): 5.35

Sequence: MPVGGQSSFY
pIC50 (HLA-B*35:01 [12]): 6.52

Sequence: STFAASGPF
pKd (HLA-A*01:01; [17]): ≤ 4.70
pKd (HLA-A*02:01; [17]): ≤ 4.70
pKd (HLA-A*31:01; [17]): ≤ 4.70
pKd (HLA-B*07:02; [17]): ≤ 4.70
pKd (HLA-B*08:02; [18]): ≤ 4.70
pKd (HLA-B*15:01; [17]): 8.15
pKd (HLA-B*15:02 [6]; [18]): 8.05
pKd (HLA-B*15:09): ≤ 4.70
pKd (HLA-B*27:05 [7]; [17]): ≤ 4.70
pKd (HLA-B*35:01 [10]; [18]): 7.35
pKd (HLA-B*39:01): ≤ 4.70
pKd (HLA-B*46:01 [8]; [17]): 5.21
pKd (HLA-B*48:01; [17]): ≤ 4.70
pKd (HLA-B*58:01; [17]): ≤ 4.70
pKd (HLA-A*11:01 [13]): ≤ 4.70
pKd (HLA-A*26:01 [14]): 7.72

From the Immune Epitope Database (IEDB)
